Assay [1] has as its target GDP microtubules (polymerised from porcine brain tubulin with GTP) (porcine) (UniProt P02550). As to the kind of experiment: in vitro MT-binding assay by epifluorescence microscopy.
Assay [2] addresses GMPCPP microtubules (polymerised from porcine brain tubulin with GMPCPP) (porcine) (UniProt P02550). The description is as above.

pKd: −log10 of the molar value.

As usually defined, the pKd is the Kd on a negative log10 scale, so that one unit is a factor of ten. The low end stands for a large Kd, the high end for a small Kd.

“KIF5C monomeric motor domain (K351) (domain or fragment)”: the pKd is 6.03 in assay [1] and 6.60 in assay [2].

The values above are taken from article PMC3144414.
